Results: article PMC5929487
“And” between values parts separate entries of the source, which are not always exact repeats. Equal values may be shown once. One block for each substance: values may come before it.

Columns and labels:
[1] = biological target: epidermal growth factor receptor (ovine pulmonary artery smooth muscle cells) (ovine (endogenous in PASMC)); assay: SDS-PAGE and Western blot of SDS-resistant dimer
[2] = biological target: epidermal growth factor receptor (rat lung) (rat (endogenous in lung tissue)); assay: SDS-PAGE and Western blot of SDS-resistant dimer
[3] = biological target: recombinant human catalase (human) (UniProt P04040); assay: SEC
[4] = biological target: recombinant human catalase (human) (UniProt P04040); assay: native gel or EMSA

- stoichiometry N [1]: 2
Substance: epidermal growth factor receptor (ovine pulmonary artery smooth muscle cells)

- stoichiometry N [2]: 2
Substance: epidermal growth factor receptor (rat lung)

- stoichiometry N [3]: 4 and 3 and 2
- stoichiometry N [4]: 4
Substance: recombinant human catalase (from UniProt P04040 1-527) (enzyme)
